Laboratory results: the nanobody polyreactivity screen of Harvey et al. (2022)

Assay: yeast display, Sf9 membrane polyspecificity reagent, FACS + sequencing; frameworks hold sequencing errors
Outline: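 Nanobodies came from a synthetic yeast display library in Saccharomyces cerevisiae BJ5465, induced with galactose for 36–48 hours and stained for 1 hour at 4 °C with 10% biotinylated, detergent-solubilized Sf9 membrane reagent. Cells were enriched on streptavidin microbeads and then FACS-sorted, with low and high (top ~1%) gates set on anti-HA fluorescence for expression and streptavidin fluorescence for reagent binding. Each polyreactivity label reflects the gate a clone came from. Genes were amplified by colony PCR, sequenced by MiSeq 2 × 250 and filtered by CDR length.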

| Sequence | polyreactivity (PSR sort gate) |
| --- | --- |
| QVQLVESGGGLVQAGGSLRLSCAASGSIFYYYAMGWYRQAPGKERELVAAINGGDGRTYYADSVKGRFTISRDNGKNTVYLQMNSLKPEDTAVYYCAADWPGYSAYYYWGQGTQVTVSS | low polyreactivity |
| QVQHVESGGGLVQAGGSLRLSCAASGFIFRWYAMGWYRQAPGKERELVAAITTSGGITYYADSVKGRFTISRDNAKNTVYLQMNSLKPEDTAVYYCNRSPWYGPWHPNSFGSGDYWGQGTQVTVSS | low polyreactivity |
| QVQLVESGGGLVQAGGSLRLSCAASGFTFYRYGMGWYRQAPGKERELVAAINNDGTTNYADSVKGRFTISRDNAKNTVYLQMNSLKPEDTAVYYCAADYYRGRYSSRYDYWGQGTQVTVSS | low polyreactivity |
| QVQLVESGGGLVQAGGSLRLSCAASGRTFSVYDMGWYRQAPGKERELVARIRSGGSTYYADSVKGRFTISRDNAKNTVYLQMNSLKPEDTAVYYCAADGFASRWYAYYYWGQGTQVTVSS | high polyreactivity |
| QFQLVESGGGIVQAGGSLRLSCYASGTFYKYAMGWNTQAPGKERELVAAISWRGGRTYADSVKGRFTISRDNAKNTVYLQMNSLIPEDTAVYYCYKRFYPEHYYWGQGTQVTVSS | high polyreactivity |
| QVQLVESGGGLVQAGGSLRLSCAASGSIFGLNGMGWYIQAPGKERELVASISASGGSTYYADSVKGRFTISRDNAKNTVYLQMNSLKPEDTAVYYCAARVVYGAGLSSSGPKQYTRRFYYWGQGTQVTVSS | high polyreactivity |
| QGQLVESGGGLVQAGGRLRLTCAASGSIFAGNAMGWYRQAPGKERELVAAIRWSTGSTYYADSVKGRFTISRDNAKNTVYLQLNSLKPEDTAVYYCAATDTTFYGIVRYEYWGQGTQVTVSS | low polyreactivity |
| QVQLVESGGGLVQAGGSLRLSCAASGSTFFSNTMGWYRQAPGIERELVAAITSRGGRTYYADSVKGRFTISRDNAKNSVYLQMNSLKPEDTAVYYCAARFVLHGVYLKFYWGQGTQLTVSS | high polyreactivity |
| QVQLVESGGGLVQAGGSLRLSCAASGSIFYFYAMGWYRQAPGKERELVAAITSGGSTYYADSVEGRFTISRDNAKNTVYLQMNSLKPEDTAVYYCAAQFYDLYHGTTYDYWGQGTQVTVSS | high polyreactivity |
| QVQLVESVGGLVQAGGSLRLSCAASGRTFDGNAMGWYRQAPGKERELVAAIRFNGSTTYYADSVKGRFTISRDNSKNTVYLQMNSLKPEDTAVYYCNKFEGALGGMDYWGQGTQVTVSS | low polyreactivity |
| QVQLVESGGGLVQAGGSLRLSCAASGSIFGYYTMGWYRQAAGKERELVAAITLDTGNTYYADSVKGRLTITRDNAKNTVYLQMNSLKPEDTAVYYCNTDYYSGYIARWSFDYWGQGTQVTVSS | low polyreactivity |
| QVQLEESGGGLVQAGGSLRLSCAASGLTFVYNTMGMYRQAPGKERELVAAINWSGGRTYYADSVKGRFTISRDNAKNTVYLQMNSLKPEDTAVYYCAALYVPNTPTYKYDYWGQGTQVTVSS | low polyreactivity |
| QDQLVKSGGGLVQAGGSLRLSCAASGSTFTRNAMGWYRQAHGKERELVAAITLRGGRTYYADSVNGRFTISRDNAKNTVYLHMNSLKPEDTAVYYCAAKPYSAYSYYEQRGRKYDYWGQGTQVTVSS | low polyreactivity |
| QVQLVESGGGLVQAGGSLRISCAASGGTFQAYAMGWYRPAPGKERELVAAITRRGTRTYYADSVKGRFTISRDNAKNTVYLQMNSLKPEDTAVYYCAAVRYPNWYDYWGQGTQVTVSS | high polyreactivity |
| QVQLVESGGGLVQAGGSLRLSCAASGFIFVRYALGWYSQAPGKEMELVAAIRRGGGDSSYYADSVKGRFTISRDNAKNTVYLQMNSLKPEDTAVYYCAARPAIERDYWGQGTQVTVSS | high polyreactivity |
| QVQLVESGRGLVQAGGSLRLSCAASGRTLRIYAMGWYRQAPGKERELVAAITSSGRTNYADSVKGRFTISRDNAKNTVYLQMNSLKPEDTAVYYCAAVTPAVNYFRAASGYYYWGQGTQVTVSS | low polyreactivity |
| QVQLVESGGGLVQAGGSIRLSCAASGFISYYYAMGWYRQAPGKERELVAAITKSGGSTYYADSVKGRFTISRDNAKNTVYLQMNSLKPEDTAVDYCAAVRSTRNSTSRLYGYWGQGTQVNVSS | low polyreactivity |
| QVQLVESGGGLVQAGGSLRLSCAASGFIFDPYAMGWYRQAPGKERELVAAISRGGSTYYADSVKGRFTISRDNAKNIVYLQMNSLKPEDTAVYYCAAVFKFTREYSTGIRYYYWGQGTQVTVSS | high polyreactivity |
| QVQLVESGGGLVQAGGSLRLSCAASGSTYRNAMGWYRQAPGKERELVAAITKSDSSTYYADSVKGRFTISRDNAKNTVYLQMYSLKPEDTAVYYCNVDRAWPPWPYDYWGQGTQVTVSS | low polyreactivity |
| QVQLVESGGGFVQAGGSLRLTCAASGYIFANYGMGWYRQAPGKQMELVAAISGSGGSTYYADSVKGRFTISRDNAKNTVYLQMNSLKPQDTAVYYCAALSNWWSYFTCYDGSDGFDYWVQGTQVTVSS | low polyreactivity |
| QVQLVESGGGLVQAGGSLRLSCAASGYTFIDNAMGWYRQAPGKERELVAAISWSVDRTYYADSVKGRFTISRDNAKNTVYLQMNSLKPEDTAVYYCAAVHWWSSSLRMYYWGQGTQVTVSS | low polyreactivity |
| QVQLVESGGGLVQAGGSLRLRCAASGLIFPYYAMGWYRQAPGKERELVAGITSDGSTNYADSVKGRFTLSRDNAKNTVYLQMNSLKPEDTAVYYCNARGVYFWWRLDYWGQGTQVTVSS | low polyreactivity |

| Sequence | polyreactivity (PSR sort gate) |
| --- | --- |
| QVQLEESGGGLVQAGGSLRLSCASYGRIFPFYALGWYRQAPRKERELVARISRRGGSTYYADSVKGRFTISRDNAKNNVYLQMNSLKPEDTAVYYCASSQAVYDGWYAKFGYWGQGTQVTVSS | low polyreactivity |
| QVQLVESGGGLVQAGGSLRLSCAASGSTFSCNSMGWYRQAPGKERELVAAITSGGSTNYADSVKGRFTISRDNAKNTVFLQMNSLKPEDTAVYYCAKRYGYRRYYTASDYWGQGTQVTVSS | low polyreactivity |
| QVQLVESGGGLVQAGGSLRLSCAASGFTFEYYAMGWYRQAPGKEREFVAAISARGDSTYYADSVKGRFTISRDNAKNTVYLQMNSLKPEDSAVYYCAKKTSPRRYYYWGQGTQVTVSS | high polyreactivity |
| QVLLVESGGGLVQAGGSLRLSCAASGFTFNRYDMVWYRQAPGTEREKVARITRGGSTKYADSVKGRFTISRDNAKNTVYLQMKSLKPEDTPVSYCAAGPVKRYVVQGNYWGQGTQVTVSS | high polyreactivity |
| QVQLVESGGGLVKAGGSLRLSCAASGSIFDGNAMGWYRQAPGKERELVADISRGGSTYYADSVKGRFTISRDNAKNTVYLLMNSLKPEDTAVYYCNVEFFFWPYEYGYWGQGTQVTVSS | low polyreactivity |
| QVQLVESGGGLVQAGGSLRLSCAASGSIFAVYAMGWYRQAPGKERELVASISRTGTTNYADSVKGRFTISRDNAKNTVYLQMNSLKPEDSAVYYCNADAYLYYKYHWGFTFYQYVYWGQGTEVTVSS | low polyreactivity |
| QVQLVESGVGLVQAGGSLRLSCASSGRTFTPNGMGWYRQAPGKERELVAAITYGGGITDYADSVKGRFTISRDNAKNTVYLQMNRLNPEDTAVYYCAATTLSFEGGKYWSKYDYWGQGTQVTVSS | low polyreactivity |
| QVQLVESGGGLVQAGGSLRLSCAASGFTLEFYAMGWYRQAPGKERELVASISSGGRTNYADSVKGRFTISRDNAKNTVFLQMNSLKPEDTAVYYCAAEYRSWGRYRYRFNYWGQGTQVTVSS | high polyreactivity |
| QVQLVESGGGLVQAGGSLRLSCAASGFTFASNAMGWYRPAPWKERELVAGISRTGTTTYYADSVKGRFTISRDNAKNTVYLQMNSLKPEDTAVYYCAASKQAVKYRSQRYYYWGQGTQVTVSS | high polyreactivity |
| QVQLVESGGGLVQAGGSLRLSCAASGFIFYTYTRGWSRQAHGKERELVAAISYSGGRTYSADSVKGRFTISRDNAKNTVYLQMNSLKPEDTAVYYCAARRYYNSVANENNYWGQGTQVTVSS | high polyreactivity |
| QVQLVESGGGLVQAGGSLRLSCAASGFTFPVYAMGWYRQAPGKERELVAAITYNGGSTYDADSVKGRFTISRDNAKHTVYFQMNSLKPEDTAVSYCAAEVFLRSLGYWYDYWGQGTQVTVSS | high polyreactivity |
| QVQLVESGGGLVQAGGSLRLSCAASGSTLGRYAMGWYRQAPGKERELVAAISSSGTTYYADSVKGRFTISRDNAKNTVYFQMNSLKPEDTAVYYCNARGFRVARHAAWYQYYYWGQGTQVTVSS | high polyreactivity |
| QVQLVESGGGLVQAGGSLRLRCAASGSIFAHYTMGWYRQAPGKERELVAVISRSGARTYYADSVKGRFTISRDNAKNTVYLQMNSLKPEDTEVYYCAADRTLEEDYWGQGTQVTVSS | low polyreactivity |
| QVQLVESGGGLVQAGGSLRLSCAASGRIFGHNAMGWYRQAPGKERELVARISSTGSTKYADSVKGRFTISRDNAKNTVYLQMNSLKPEDTAVYYCAAYIIRWKGSSYYWGQGTQVTVSS | high polyreactivity |
| QVQLVESGGGLVQAGGSLRLSCAASGSIFPTYALGWYRQAPGKERELVAAISSIVGGTYYADSVKGRFTISRDNAKNTVYLQMNSLKPEDTAVYYCNKTKFQGYDYWGQGTQVTVSS | low polyreactivity |
| QVQLVESGGGLVQAGGSLRLSCAASGSTFTSNAMGWYRQAPGKERELVAAISFSDASTYYADSVKGRFTISRDNAKKTVYLQMNRLKPEDTAVYYCNADYPTTAYDYCGQGTQVTVSS | low polyreactivity |
| QVQLVETGGGLVQAGGSLRLSCAASGRTISVNAMVWYIQAPGKESELVAAISSGGGTNYADSVKGRFTISRDNAKNTVYFQMNSLKPEDTAVYYCAADSRPGKYYEDDYWGQGTQVTVSS | low polyreactivity |
| QVQLVESGGGLVQAGGSLRLSCAASGIIFTTNMGWYRQAPGKERELVATIRVNGGRTYYADSVKGRFTISRDNAQNTVYLQMNSLKPEDTAVYYCAARYSAGAQRYGYWGQGTQVTVSS | high polyreactivity |
| QVQLVESGGGLVQAGGSLRLSCAASGRTFYYAMGWYRQAPGKERYADSVKGRVTISRDNAKNTVYLQMNSLKPEETAVYYCAAKVPEPPSLDESDYWGQGTQVTVSS | low polyreactivity |
| QVQLVESGGGLVQAGGSLRLSCDASGRISGSYVMGWYRQAPRKERELVAGISGRGGSTYYADSVKGRFTISRDNAKNTVDLQMNSLKPEDTAVYYCAVVDRTSKGNSYYWGQGTQVTVSS | high polyreactivity |
| QVQLVESGGGLVQAGGSLRLSCAASGRTFGLNAMGWYRQAPGKERELVAAIDWRGVNTYYADSVKGRFTISRDNAKNTVYLQMNSLKPEDTAVYYCNARAYGRYYWGQGTQVTVSS | high polyreactivity |
